Sequences and labels used below:
B1: ATX-P-579 (antibody, V domains shown)
VH: QVQLQESGPGLVKPSGTLSLTCAVSGASISTSNWWTWVRQPPGKGLEWIGEIYHDGSTNYSPSLQSRVTISVDKSKNQFSLTLTSVTAADTAIYYCGDFYIDVWGNGTTVTVSS
VL: DIQMTQSPSSLSASVGDRVTITCRASQGIRKDLGWYQQKPGKAPKRLIYTASTLQSGVPSRFSGSGSGTEFTLTISSLQPEDFATYYCLQYNNYPFTFGPGTKVDIKR
B2: ATX-P-580 (antibody, V domains shown)
VH: QVQLQESGPGLVKPSGTLSLTCAVSGGSISTSDWWTWVRQPPGKGLEWIGEIYHSGSTNYNPSLKSRVTISVDKSKNQFSLKLSSVTAADTAVYYCADWYFDLWGRGTLVTVSS
VL: DIQMTQSPSSLSASVGDRVTITCRASQGIRNDLGWYQQKPGKAPKRLIYAASSLQSGVPSRFSGSGSGTEFTLAISSLQPEDFATYYCLHFNSYPFTFGPGTKVDIKR
B3: ATX-P-578 (antibody, V domains shown)
VH: EVQLVESGGGLVQPGGSLRLSCAASGFTFSRYSMNWVRQAPGKGLEWVSYISSSSSTIFHADSVKGRFTISRDNAKNSLYLQMNSLRDEDTAVYYCARGNWNYYYMDVWGKGTTVTVSS
VL: DIQMTQSPSTLSASVGDRVTISCRASQSVNSWLAWYQQKPGKAPKLLIYKASNLEGGVPSSFSGSGSGTEFTLTISSLQPDDFATYYCQQYDTSWTFGQGTKVEIKR
B4: ATX-P-570 (antibody, V domains shown)
VH: QVQLQESGPGLVKPSETMSLTCTVSGGSFTGYYWSWIRQPPGKGLEWIGYVHYSGGTKSNPSLKSRVTISVDTSKNQFSLKLSSVTAADTAVYYCARERYEWNSYFDYWGQGTLVTVSS
VL: not shown
B5: ATX-P-565 (antibody, V domains shown)
VH: QVQLVESGGGVVQPGRSLRLSCAASGFTFNTYGIHWVRQAPGKGLEWVAVIWHDGSSKNYVDSVTGRFTISRDNSKNTVYLQMNSLRAEDTAVYYCARRGNWNYGFYYYYMDVWGKGTTVTVSS
VL: DIVMTQSPLSLPVTPGEPASISCRSSQRLLHSSGYNYLDWYLQKPGQSPQLLIYLGSSRASGVPDRFSGSGSGTDFTLKISRVEAEDVGVYYCMQGLQTPPTFGQGTKVEIKR
B6: ATX-P-574 (antibody, V domains shown)
VH: EVQLVESGGGLVQRGGSLRLSCVASGFTFSSYAMSWVRQAPGKGLEWVSVISGSGGTTYYADSVKGRFTISRDDSKKTLYLQMNSLRAEDTAVYYCAKRGDYGDYMDVWGKGTTVTVSS
VL: DIQMTQSPSSVSASVGDRVTITCRASQGITTWLAWYQQKPGKAPKLLIFGASSLESGVPSRFSGSGSGTDFTLTISSLQPEDFATYYCQQANSFPWTFGQGTKVEIKR
B7: ATX-P-560 (antibody, V domains shown)
VH: QVQLQQSGPGLVKPSQTLSLTCAISGDSVSSNTAAWNWIRQSPSRGLEWLGRTYYRSKWYNDYAVSVKSRITINPDTSKNQFSLQLSSVTPQDTAIYYCASDNWNNGGPGFDPWGQGTLVTVSS
VL: DIQMTQSPSSVSTSVGDRVTITCRASQGISSWLAWYQQKPGKAPKLLISAASSLQSGVPSRFSGSGSGTDFTLTISTLQPEDFASYYCQQANSFPPTFGQGTRVEIKR
B8: ATX-P-561 (antibody, V domains shown)
VH: QVQLQQSGPGLVKPSQTLSLTCAISGDSVSSNSAAWNWIRQSPSRGLEWLGRTYYRSKWYNGYAVSMKSRITINPDTSKNQFSLQLNSVTPEDTAMYYCAREGVGATTGFDYWGQGTLVTVSS
VL: DIQMTQSPSSLSASVGDRVTITCRASQGISSWLTWYQQKPGKAPKLLIYAASSLQGGVPSRFSGSGSGTDFTLTISSLQPEDFATYYCQQANSFPPTFGQGTKVEIKR
B9: ATX-P-576 (antibody, V domains shown)
VH: EVQLVESGGGLVQPGRSLRLSCTASGFTFDDYEMHWVRQAPGKGLEWVSDISRNSGRIGYADSVKGRFTISRDNAKNSLYLQMNSLRAEDTALYYCAKDIWGSGYFDYWGQGILVTVSS
VL: DIQMTQSPSSVSASVGDRVTITCRTSQGIRNWLAWYQQKPGKAPKLLIYAASSLQTGGPSRFSGSGSGTDFTLTISSLQPEDFATYYCQQANSFPYTFGQGTKLEIKR
B10: ATX-P-562 (antibody, V domains shown)
VH: QVQLQQSGPGLVKSSQTLSLTCAISGDTVSSNSAAWNWIRQSPSRGLEWLGRTFYRSRWSAAYAASVSSRITINPDTSKNQFSLQLTSVTPADTAVYYCAREGVGSSTGFDYWGQGTLVTVSS
VL: DIQMTQSPSSVSASIGDRVTITCRASKGISIWLAWYQQKPGKAPKVLISAASSLQSGAPSRFSGSGSGTDFTLTISSLQPEDFATYYCQQANSFPPTFGQGTKVEIKR
B11: ATX-P-581 (antibody, V domains shown)
VH: QVQLQQSGPGLVKPSQTLSLTCAISGDSVSSNNAAWNWIRQSPSRGLEWLGRTYYRSKWYNAYAVSVKSRIIINPDTSRNQFSLQLNSVTPEDTAVYYCAREGGYIYGLDQWGQGTLVTVSS
VL: DIQMTQSPSSVSASVGDRVTITCRASQGVNNWLAWYQQKPGKAPKLLIHAASSLLSGVPSRFSGSGSGTDFTLTITSLQPEDFATYYCQQANSFPITFGQGTRLEIKR
B12: ATX-P-573 (antibody, V domains shown)
VH: QVQLQQSGPGLVKPSQTLSLTCAISGDSVSSNSAAWNWIRQSPSRGLEWLGRTYYRSKLYSDYAVSVKSRITINPDTSRNQFSLQLNSVTPEDTAVYYCAREGGYTYGYDYWGQGTLVTVSS
VL: DIQMTQSPSSVSASVGDRVTITCRASQGISSWLAWYQQKPGKAPKVLIYAASSLQSGVPSRFSGSGSGTDFTLTISSLQPEDFATYYCQQANSFPPTFGPGTKVDIKR
B13: ATX-P-609 (antibody, V domains shown)
VH: QVQLQESGPGLVKPSGTLSLTCAVSGGSISSSNWWSWVRQPPGKGLEWIGEIYHSGSTNYNPSLKSRVTISVDKSKNQFSLKLRSVTAADTAVYYCARDQLSSGPTDAFDIWGQGTMVTVSS
VL: EIVMTQSPATLSVSPGERATLSCRASQSVSSNLAWYQQKPGQAPRLLIYGASTRATGIPVRFSGSGSGTQFTLTISSLQSEDFAVYYCQQYDNWRTFGQGTKLEIKR
B14: ATX-P-608 (antibody, V domains shown)
VH: QVQLQESGPGLVKPSGTLSLTCAVSGGSISSSNWWSWVRQSPGKGLEWIGEIYHTGSTNKKPSLKSRVIISVDKSKNQFSLKLISVNAADTAIYYCARDREGGTTEAFDIWGQGTMVTVSS
VL: EIVMTQSPATLSVSPGERATLSCRASQSVSSNLAWYQQKPGQAPRLLIYGASTRATGIPVRFSGSGSGTQFTLTISSLQSEDFAVYYCQQYDNWRTFGQGTRLEIKR
B15: ATX-P-602 (antibody, V domains shown)
VH: not shown
VL: EIVLTQSPGTLSLSPGERATLSCRASQSVSSSYLAWYQQKPGQAPRLLIYGASSRATGIPDRFSGSGSGTQFTLTISSLQSEDFAVYYCQQYGSSPWTFGQGTKVDIKR
B16: ATX-P-583 (antibody, V domains shown)
VH: QVQLVQSGAEVKKPGASVKVSCKASGYTFTTYGISWVRQAPGQGLEWMGWISAYSGNTHYAQSLQDRVTMTTDTSTSTAYMEVRSLRSDDTAVYYCAKDEGYCSSTGCLNLFDPWGQGTLVTVSS
VL: DIQMTQSPSSLSASVGDRVTITCRASQNIGSYLNWYQQKPGNAPKLLIYATSTLQSGVPSRFSGSGSGTDFTLIISSLHPEDFTVYYCQQSFIIPFTFGPGTKVDIKR
B17: ATX-P-601 (antibody, V domains shown)
VH: QVQLVQSGAEVKKPGASVKVSCKASGYTFTSYYMHWVRQAPGQGLEWMGIINPSGGSTNYAQKFQGRLTMTRDTSTNTVYMELSSLRSEDTAVYYCATDQSGGMDVWGKGTTVTVSS
VL: DIQMTQSPSSLSASVGDRVTITCRASQSINIYLNWYQQKPEKDPKLLIYAASSLQSGVPSRFSGSGSGTDFTLTISNLQPEDFATYYCQQSYSTPITFGQGTRLEIKR
B18: ATX-P-571 (antibody, V domains shown)
VH: QVQLQESGPGLVKPSGTLSLTCAVSGGSISSRNWWSWVRQPPGKGLEWIGEIYHGGTTNYNPSLKSRVTISVDKSKNQFSLKLSSVTAADTAVYYCARGGLRLGELSPNAFDIWGQGTMVTVSS
VL: DIQMTQSPSSLSASVGDRVTITCRASQSISSYLNWYQQKPGKAPKVLIYAASSLQSGIPSRFSGSGSGTDFTLTISSLQPEDFATYYCQETYSVPLTFGGGTKVEIKR
B19: ATX-P-597 (antibody, V domains shown)
VH: QVQLVQSGAEVKKPGASVKVSCKASGYTFTNYYMQWVRQAPGQGLEWLGIIDPSGGSTTYAQKFQGRVTMTRDTSTSTVHMELRSLRSEDTAVYYCARDEGTDRPGWGYWGQGTLVTVSS
VL: DIQMTQSPSSLSASIGDRVTITCRASQSISSYLDWYQRKSGKAPKLLIYAASSLQSGVPSRFSGSGSGTDFTLTISSLQPEDFATYYCQQSYSTPLTFGGGTKVDIKR
B20: ATX-P-572 (antibody, V domains shown)
VH: QVQLQQSGPGLVKPSQTLSLTCAISGDSVSSNSAAWNWIRQSPSRGLEWLGMTYYRSKWYSVFAVSVKSRITINTDTSKNQFSLQLNSVTPEDTAVYYCAREGGIVGATPFDYWGQGTLVTVSS
VL: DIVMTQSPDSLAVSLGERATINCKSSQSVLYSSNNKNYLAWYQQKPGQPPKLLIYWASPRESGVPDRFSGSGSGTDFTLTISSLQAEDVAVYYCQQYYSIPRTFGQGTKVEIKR
B21: ATX-P-588 (antibody, V domains shown)
VH: EVQLVESGGGLVQPGRSLRLSCAASGFTFEDYAMHWVRQAPGKGLEWVSGISWNSGSIGYADSVKGRFTISRDNAKKSLYLQMNSLRAEDTALYYCTKDRDDGYNYAGVFDYWGQGTLVTVSS
VL: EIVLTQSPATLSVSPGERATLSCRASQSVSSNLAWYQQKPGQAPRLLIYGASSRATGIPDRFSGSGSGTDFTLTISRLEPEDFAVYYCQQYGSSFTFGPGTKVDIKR
B22: ATX-P-607 (antibody, V domains shown)
VH: QVQLVQSGAEVKKPGASVKVSCKASGYTFTSYYMHWVRQAPGQGLEWMGIINPSGGSTSYAQKFQGRVTMTRDTSTNTVYMELSSLRSEDTAVYYCARDPEYSSAFDIWGQGTMVTVSS
VL: DIQMTQSPSSLSASVGDRGTITCRASQSIRSYLNWYQQKPGKAPKLLIYAASSLQSGVPSRFSGSGSGTDFTLTISSLQPEDFATYYCQQSYRTPVTFGPGTKVDIKR
B23: ATX-P-568 (antibody, V domains shown)
VH: EVQLVESGGGLVQPGGSLRLSCAASGFPFSSYVMSWVRQAPGKGLEWVSVISVSGGSTFYADSVRGRFTISRDNSKNTLYLQVYSLRAEDTAVYYCAKDGLAVAGFDHWGQGTLVTVSS
VL: DIQMTQSPSTLSASVGDRVTITCRASQSISTWLAWYQQKPGKAPKLLIHKASGLESGVPSRFSGSGSGTEFTLTISSLQPDDFATYYCQQYNSFSLIFGGGTRVEIKR

For orientation: Kd means a measure of binding affinity in units of concentration. The low end stands for tighter binding, the high end for weaker binding.

For this test, the target named is hCFHR4. Kind of test: SPR kinetics. On the technique in general: Surface plasmon resonance follows binding to a sensor surface in real time, without labels.
Molecule B1 displayed a dissociation constant (Kd) of 1.46 nM.

Regarding B2, binding was put at a Kd of 31.9 nM. The same measure for B3: 25 nM; for B4: 10.5 nM; for B5: 6.9 nM.

In turn, B6 came in with a Kd of 5.9 nM. The same measure for B7: 2.12 nM.

B8: the Kd amounted to 31.9 nM.

With B9, binding was put at a Kd of 0.9 nM. The same measure for B10: 0.487 nM; for B11: 9.65 nM; for B12: 23 nM. Next, B13: 4.98 nM; B14: 0.347 nM; B15: 33 nM. B16 showed an equilibrium dissociation constant (Kd) of 0.317 nM. In the case of B17, the Kd was 18.2 nM. For the molecule B18, the Kd stood at 27.4 nM.

For B19, binding was put at a Kd of 0.168 nM.

Molecule B20 displayed a Kd of 1.5 nM. The same measure for B21: 6.87 nM. Next, B22: 7.97 nM; B23: 1.62 nM.

Source of the values: patent US20250289873A1 (published 2025).
